Measured values reported in patent publication US20230051715A1 (MABWELL THERAPEUTICS, published 2023).
Each block holds one binder with its values, some of them ahead of it.

Key:
[1] = molecular target: T1, cynomolgus monkey C1s (produced in house) (cynomolgus monkey, UniProt P09871 16-685 (human entry), limits assumed); assay: BLI (Octet RED96e), antibody on AHC biosensor; C1s Species: Cyno Monkey; R^2 0.9999
T1 construct: also called CyC1s
T1 chain: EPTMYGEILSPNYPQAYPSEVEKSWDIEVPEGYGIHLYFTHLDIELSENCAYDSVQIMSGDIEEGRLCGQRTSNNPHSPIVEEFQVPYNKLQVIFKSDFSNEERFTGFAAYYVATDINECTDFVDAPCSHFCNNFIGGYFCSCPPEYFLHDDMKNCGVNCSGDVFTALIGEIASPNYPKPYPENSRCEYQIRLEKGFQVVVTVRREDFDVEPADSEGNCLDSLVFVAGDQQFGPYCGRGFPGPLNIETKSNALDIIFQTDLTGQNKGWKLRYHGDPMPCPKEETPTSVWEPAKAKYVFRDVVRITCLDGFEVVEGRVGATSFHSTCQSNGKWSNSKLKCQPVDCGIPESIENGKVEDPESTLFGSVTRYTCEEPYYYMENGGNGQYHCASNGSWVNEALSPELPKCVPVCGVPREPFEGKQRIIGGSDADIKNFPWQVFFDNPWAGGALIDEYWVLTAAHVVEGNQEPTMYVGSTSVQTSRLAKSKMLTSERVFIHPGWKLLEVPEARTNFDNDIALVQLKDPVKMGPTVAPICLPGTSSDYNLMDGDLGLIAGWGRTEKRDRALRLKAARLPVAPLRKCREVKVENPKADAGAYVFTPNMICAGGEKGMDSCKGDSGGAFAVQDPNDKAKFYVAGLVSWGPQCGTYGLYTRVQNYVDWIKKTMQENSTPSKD
From the text: (§1) At last, analyte was dissociated in 1×KB for 360 sec. Data analysis was done using OCTET® Data Analysis HT Software (Sartorius AG).

[2] = molecular target: T2, full-length human C1s (produced in house) (human, UniProt P09871 16-688); assay: BLI (Octet RED96e), antibody on AHC biosensor; C1s Species: Human; R^2 0.9992
T2 construct: Called full-length; Partly auto-cleaved at R422-I423 on blots; also called HuC1s; Hu C1s
T2 sequence: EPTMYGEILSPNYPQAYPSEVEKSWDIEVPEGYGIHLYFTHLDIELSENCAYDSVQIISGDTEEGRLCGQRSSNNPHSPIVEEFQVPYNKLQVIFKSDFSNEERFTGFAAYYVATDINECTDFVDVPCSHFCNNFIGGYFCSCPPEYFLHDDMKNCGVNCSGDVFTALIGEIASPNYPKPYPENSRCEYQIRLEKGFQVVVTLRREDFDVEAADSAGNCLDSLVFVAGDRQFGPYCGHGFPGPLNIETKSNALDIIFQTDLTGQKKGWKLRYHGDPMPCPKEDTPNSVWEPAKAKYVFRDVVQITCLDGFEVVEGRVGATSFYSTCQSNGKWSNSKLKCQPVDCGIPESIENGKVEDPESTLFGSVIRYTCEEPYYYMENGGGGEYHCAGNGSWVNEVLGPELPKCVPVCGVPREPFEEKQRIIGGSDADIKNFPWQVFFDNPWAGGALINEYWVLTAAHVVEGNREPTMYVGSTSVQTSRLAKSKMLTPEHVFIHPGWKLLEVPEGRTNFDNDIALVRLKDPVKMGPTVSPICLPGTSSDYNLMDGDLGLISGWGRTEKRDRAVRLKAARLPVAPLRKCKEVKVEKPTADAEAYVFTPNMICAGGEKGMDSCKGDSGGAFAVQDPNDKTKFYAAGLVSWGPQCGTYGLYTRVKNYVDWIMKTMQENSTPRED
From the text: as §1

Kd [1]: 0.23 nM | koff [1]: 6.5e-05 s⁻¹ | kon [1]: 280000 M⁻¹ s⁻¹
B1: Anti-C1s antibody 2-7 (antibody, human IgG1, kappa, V domains shown)
VH: EVKLEESGGGLVPPGGSMKLSCVASGFTFSNYFMNWVRQSPEKGLEWVAEIRLKFTNYATHYAESVEGRFTISRDDSKSSVYLQMNNLRAEDTGIYYCTRDYGSRNGYFDYWGQGTTLTVSS
VL: DIVMTQAAPSVPVTPGESVSISCRSSKSLLHSNGNTFLYWFLQRPGQSPQLLIYRMSNLASGVPDRFSGSGSGTAFTLRVSRVEAEDVGIYYCMQHLEYPYTFGGGTKLEIKT
notes: the HC/LC entries may hold it too; also called clone 2-7

Kd [2]: 0.032 nM | koff [2]: 0.00012 s⁻¹ | kon [2]: 3.8e+06 M⁻¹ s⁻¹
B2: Anti-C1s antibody 2-8 (antibody, V domains shown)
VH: EVQLQQSGAELVRPGALVKLSCKASGFNIKEYYMHWVKQRPEQGLEWIGWIDPENGDTIYDPKFQGKASITADTSSNTAYLQLSSLTSEDTAVYYCARSRLFFAYWGQGTLVTVSA
VL: DIVMTQSHKFMSTSVGDRVSFTCKASQDVRTAVDWYQQKPGQSPKLLIYSASYRYTGVPDRFTGTGSGTDFTFTISSVQAEDLAVYFCQQQYTTPYTFGGGTKLEIKT
notes: the HC/LC entries may hold it too; also called clone 2-8
